± gives the uncertainty stated by the source.
Experiment: self-splicing fitness, log relative to wild type (ln ratio); higher = more splicing; Tetrahymena group I intron in knt gene, E. coli kanamycin selection, DiMSum; sequences stand for … in CUCUCU…GGAGGGAAAAGUUAUCAGGCAUGCACCUGGUAGCUAGUCUUUAAACCAAUAGAUUGCAUCGGUUUAAAAGGCAAGACCGUCAAAUUGCGGGAAAGGGGUCAACAGCCGUUCAGUACCAAGUCUCAGGGGAAACUUUGAGAUGGCCUUGCAAAGGGUAUGGUAAUAAGCUGACGGACAUGGUCCUAACCACGCAGCCAAGUCCUAAGUCAACAGAUCUUCUGUUGAUAUGGAUGCAGUUCACAGACUAAAUGUCGGUCGGGGAAGAUGUAUUCUUCUCAUAAGAUAUAGUCGGACCUCUCCUUAAUGGGAGCUAGCGGAUGAAGUGAUGCAACACUGGAGCCGCUGGGAACUAAUUUGUAUGCGAAAGUAUAUUGAUUAGUUUUGGAGUACUCGUGGUCG
Method in brief: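 A randomised library covering all eight P1ex-region intron nucleotides was built with the intron in the knt kanamycin-resistance gene on pET-22b(+) and held in E. coli BL21(DE3). Cells were grown overnight at 37°C or 30°C on LB agar, with or without 25 μg/mL kanamycin, plus 100 μg/mL carbenicillin, 50 μM IPTG and 0.2% rhamnose, and pooled colonies were amplicon-sequenced on an Illumina HiSeq 2500. DiMSum fitness is the error-weighted combination of wild-type-normalised replicate fold changes, kanamycin versus none.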

Sequence | self-splicing fitness (ln) (30 °C) | self-splicing fitness (ln) (37 °C)
ACGAAGCAAUAUUACGUAUU | -3.11 ± 0.087 | -2.18 ± 0.093
UACCAGCAAUAUUACGUAUA | -0.615 ± 0.058 | -0.199 ± 0.072
GCCAAGCAAUAUUACGAGCU | -1.35 ± 0.12 | -1.46 ± 0.15
UAGUAGCAAUAUUACGGGUA | -1.99 ± 0.12 | -0.398 ± 0.097
GUUAAGCAAUAUUACGACUC | 0.708 ± 0.15 | 0.214 ± 0.17
GGCGAGCAAUAUUACGUAUA | -1.86 ± 0.14 | -1.07 ± 0.13
CCUCAGCAAUAUUACGCGAG | -2.89 ± 0.1 | -1.76 ± 0.11
GACCAGCAAUAUUACGAGUU | -3.35 ± 0.1 | -1.5 ± 0.096
AACGAGCAAUAUUACGCCUG | -3.77 ± 0.32 | 
GUUGAGCAAUAUUACGUUGA | -3.13 ± 0.29 | -2.9 ± 0.33
AGUUAGCAAUAUUACGUCCG | -1.32 ± 0.15 | -0.0933 ± 0.19
CCGGAGCAAUAUUACGGAAU | -2.95 ± 0.26 | -2.96 ± 0.25
UUACAGCAAUAUUACGUCAA | -1.14 ± 0.082 | -0.187 ± 0.081
AGACAGCAAUAUUACGUACU | -0.834 ± 0.062 | -0.36 ± 0.086
AUGGAGCAAUAUUACGUUGU | -2.69 ± 0.17 | -2.48 ± 0.23
UCUAAGCAAUAUUACGUUCU | -3.14 ± 0.22 | -1.47 ± 0.14
UGGAAGCAAUAUUACGCUCU |  | -1.45 ± 0.32
CUCGAGCAAUAUUACGUUCA | -3.47 ± 0.35 | 
CGUAAGCAAUAUUACGAGCA | -1.84 ± 0.48 | -1.33 ± 0.22
UAGAAGCAAUAUUACGCAUA | -1.55 ± 0.17 | -1.36 ± 0.12
GAGAAGCAAUAUUACGCACU | -1.73 ± 0.14 | -0.249 ± 0.16
ACUGAGCAAUAUUACGAGGC | -3.07 ± 0.23 | -2.59 ± 0.36
UCAGAGCAAUAUUACGUCGG | -1.87 ± 0.2 | -0.479 ± 0.16
GAAUAGCAAUAUUACGGAAC | -2.37 ± 0.16 | -0.0927 ± 0.15
UCUUAGCAAUAUUACGGGCC | -3.6 ± 0.32 | -1.41 ± 0.27

Sequence | self-splicing fitness (ln) (30 °C) | self-splicing fitness (ln) (37 °C)
GGAGAGCAAUAUUACGAACC | -2.16 ± 0.43 | 
AAUGAGCAAUAUUACGCUAC | -3.12 ± 0.27 | -2.84 ± 0.34
GGCAAGCAAUAUUACGGAUA | -0.889 ± 0.1 | -0.586 ± 0.097
GCAAAGCAAUAUUACGCUAG | -2.78 ± 0.088 | -2.51 ± 0.084
CAAAAGCAAUAUUACGAUAU | -4.43 ± 0.25 | -2.23 ± 0.18
GAAAAGCAAUAUUACGAUCU | -0.472 ± 0.075 | -0.478 ± 0.085
UAUGAGCAAUAUUACGUUAG | -2.63 ± 0.17 | -2.23 ± 0.22
CACCAGCAAUAUUACGGGGU | -4.29 ± 0.2 | -3.49 ± 0.29
UUGAAGCAAUAUUACGGCCG | 0.53 ± 0.14 | 0.318 ± 0.22
CUUAAGCAAUAUUACGAGAU | -2.92 ± 0.22 | -1.59 ± 0.2
ACUUAGCAAUAUUACGAUUA | -1.05 ± 0.13 | -1.55 ± 0.13
UCGCAGCAAUAUUACGCGAU | -2.55 ± 0.18 | -2.97 ± 0.25
UUAAAGCAAUAUUACGCAGC |  | -2.68 ± 0.47
ACACAGCAAUAUUACGCAAU | -3.32 ± 0.15 | -1.94 ± 0.15
CGGGAGCAAUAUUACGGCUG | -2.43 ± 0.25 | -2.14 ± 0.34
GGCAAGCAAUAUUACGCGCU | -3.35 ± 0.42 | -3.25 ± 0.43
CAGUAGCAAUAUUACGUCCA | -2.28 ± 0.21 | -1.83 ± 0.28
CUCGAGCAAUAUUACGGCUA |  | -2.32 ± 0.39
ACAGAGCAAUAUUACGCAUU | -4.18 ± 0.27 | -2.99 ± 0.31
AGCAAGCAAUAUUACGGGGA | -2.7 ± 0.14 | -2.1 ± 0.14
AACCAGCAAUAUUACGGUCG | -0.366 ± 0.049 | 0.214 ± 0.07
GGAAAGCAAUAUUACGGUAC | -0.689 ± 0.13 | -1.36 ± 0.19
UCUAAGCAAUAUUACGAUAG | -1.15 ± 0.07 | -0.499 ± 0.1
GUGGAGCAAUAUUACGCAGG |  | -1.19 ± 0.28
AUUUAGCAAUAUUACGAAAG | -2.86 ± 0.25 | -0.748 ± 0.17

Reference: the supplement of paper PMC7877785
